The record followed here is PMC6366628.

One data set deals with T1, RAD52 (Homo sapiens, UniProt P43351 1-418).
T1 sequence: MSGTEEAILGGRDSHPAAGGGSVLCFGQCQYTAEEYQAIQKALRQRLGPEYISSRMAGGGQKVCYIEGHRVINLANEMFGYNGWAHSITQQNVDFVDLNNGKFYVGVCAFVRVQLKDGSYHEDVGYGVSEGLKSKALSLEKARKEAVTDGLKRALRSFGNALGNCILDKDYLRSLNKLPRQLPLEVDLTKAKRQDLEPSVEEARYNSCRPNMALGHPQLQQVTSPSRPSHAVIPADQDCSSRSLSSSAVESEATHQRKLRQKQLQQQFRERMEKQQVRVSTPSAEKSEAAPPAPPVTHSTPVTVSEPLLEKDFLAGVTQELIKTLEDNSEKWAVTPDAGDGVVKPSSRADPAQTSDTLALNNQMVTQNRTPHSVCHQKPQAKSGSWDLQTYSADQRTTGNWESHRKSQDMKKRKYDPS
In words: EMSA. In general terms: In EMSA bound probe runs differently from free probe, usually more slowly.

For the next data set, the target named is RPA complex (Homo sapiens, UniProt P27694;P15927;P35244 1-616;1-270;1-121). Nature of the data set: EMSA.
Chain of RPA complex (P27694 whole entry, chain 1 of 3): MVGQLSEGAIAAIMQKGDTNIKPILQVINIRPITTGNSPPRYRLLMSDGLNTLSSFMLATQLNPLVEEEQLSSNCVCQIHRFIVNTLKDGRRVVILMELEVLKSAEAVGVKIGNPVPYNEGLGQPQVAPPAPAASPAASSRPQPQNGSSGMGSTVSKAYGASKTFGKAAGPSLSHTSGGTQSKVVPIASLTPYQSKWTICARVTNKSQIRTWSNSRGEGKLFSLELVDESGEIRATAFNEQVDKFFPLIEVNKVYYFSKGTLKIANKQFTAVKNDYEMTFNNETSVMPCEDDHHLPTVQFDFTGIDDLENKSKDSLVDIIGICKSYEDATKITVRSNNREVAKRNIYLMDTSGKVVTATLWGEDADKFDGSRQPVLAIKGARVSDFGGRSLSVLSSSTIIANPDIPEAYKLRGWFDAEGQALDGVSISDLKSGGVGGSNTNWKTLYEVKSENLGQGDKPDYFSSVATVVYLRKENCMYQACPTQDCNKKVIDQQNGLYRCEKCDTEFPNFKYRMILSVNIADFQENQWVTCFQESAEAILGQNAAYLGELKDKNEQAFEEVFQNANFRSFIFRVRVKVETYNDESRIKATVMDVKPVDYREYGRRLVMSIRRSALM
Chain of RPA complex (P15927 whole entry, chain 2 of 3): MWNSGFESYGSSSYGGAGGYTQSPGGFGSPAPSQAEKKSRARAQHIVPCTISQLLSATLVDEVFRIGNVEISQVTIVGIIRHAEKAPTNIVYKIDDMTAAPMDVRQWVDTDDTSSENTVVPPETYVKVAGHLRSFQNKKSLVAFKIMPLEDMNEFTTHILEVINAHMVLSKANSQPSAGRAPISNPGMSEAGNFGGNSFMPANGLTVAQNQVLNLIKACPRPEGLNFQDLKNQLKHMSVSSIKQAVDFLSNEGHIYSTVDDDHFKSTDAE
Chain of RPA complex (P35244 whole entry, chain 3 of 3): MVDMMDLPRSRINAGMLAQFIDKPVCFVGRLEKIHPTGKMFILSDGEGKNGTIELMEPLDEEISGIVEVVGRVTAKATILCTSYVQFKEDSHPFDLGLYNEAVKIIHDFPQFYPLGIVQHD

B1: ssTelo (Telo G-strand) (ssDNA)
DNA: TTAGGGTTAGGGTTAGGGTTAGGGTTAGGGTTAGGGTTAGGGTTAGGGTTAGGGTTAGGG
Take B1: the binding result in the data set with RAD52 and in the data set with RPA complex was “binds” in each case.
